{
  "source": "patent KR20230010676A",
  "target": "SARS-CoV-2 스파이크 D19 (VSV 슈도바이러스) (SARS-CoV-2) (UniProt P0DTC2)",
  "assay": "cell-based or functional assay",
  "data": [
    {"substance": "S2E12-LS (antibody)", "values": [
      {"measurement": "EC50 (neutralisation, interpolated)", "result": 1.4, "unit": "ng/mL"},
      {"measurement": "EC90 (neutralisation, interpolated)", "result": 11.9, "unit": "ng/mL"},
      {"measurement": "IC50 (neutralisation)", "result": 1.4, "unit": "ng/mL"}
    ]}
  ]
}
